Columns and labels:
[1] = target: T1, CMV gp116 epitope AD2 site peptide SHRANETIYNTTLKYGDTTGTNTTK (CMV (human cytomegalovirus), not fully specified); assay: kinetic affinity measurement, method not stated; antigen taken as AD2 peptide; same value as r13, table re-sorted by koff
T1 construct: Synthetic polypeptide corresponding to the AD2 site of gp116 (glycoprotein B); A biotinylated form was used to select B cells; also called CMV gp116 AD2 peptide
T1 peptide: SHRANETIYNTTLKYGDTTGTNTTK

[2] = target: T1, CMV gp116 epitope AD2 site peptide …; assay: kinetic affinity measurement, method not stated; antigen taken as CMV gp116 AD2 peptide
[3] = target: GPCMV gB (glycoprotein B of guinea pig CMV strain V545/82) (guinea pig cytomegalovirus); assay: cell-based or functional assay
[4] = target: T1, CMV gp116 epitope AD2 site peptide …; assay: kinetic affinity measurement, method not stated; antigen taken as AD2 peptide; same value as r8, table re-sorted by koff
[5] = target: T1, CMV gp116 epitope AD2 site peptide …; assay: kinetic affinity measurement, method not stated; antigen taken as AD2 peptide; same value as r9, table re-sorted by koff
[6] = target: T1, CMV gp116 epitope AD2 site peptide …; assay: kinetic affinity measurement, method not stated; antigen taken as AD2 peptide; same value as r12, table re-sorted by koff

B1: 2N9 human anti-CMV antibody (antibody, V domains shown)
VH: QVQLVESGGGVVQPGRSLRLSCAASGFTFSSNGIHWVRQAPGKGLDWVAVISSDANDKQYADSVKGRFTISRDNSKNMVYLQMNSLRVEDTAVYFCARDGTCSGGNCYSGLIDYWGRGILVTVSS
VL: EIVLTQSPATLSLSPGERATLSCRASQSVGGYLAWYQQKPGQAPRLLIYDASIRATGIPARFSGSGSGTDFTLTISSLEPEDFAVYYCHQRSNWPPLTFGGGTKVDIKR
notes: Recombinant human IgG, gamma heavy and kappa light chain; (MDMR); If the listing entry has two more residues, the range shifts by 2; also called TCN-202; mAb C-2N9
[1]
  Kd: 11.6 nM
  koff: 0.03 s⁻¹
  kon: 2.6e+06 M⁻¹ s⁻¹
[2]
  Kd: 11.6 nM
  koff: 0.03 s⁻¹
  kon: 2.6e+06 M⁻¹ s⁻¹
[3]
  neutralization of GPCMV V545/82 entry into JH4 cells; highest concentration tested without effect: > 300 ng/mL

B2: 2F10 human anti-CMV antibody (antibody, V domains shown)
VH: QVHLVESGGGVVQPGRALRLSCAATGFTFSNHGIHWVRQAPGKGLEWLAVISSDGDDDRYADSVKGRFSVSRDNSKNTVHLQMNGLRPDDTAIYFCARDGRCGEPKCYSGLPDYWGRGTLVTVSS
VL: EIVLTQSPATLSLSPGDRATLSCRASQSVGGYLAWYQQKPGQAPRLLLYDASNRATGIPARFSGSGSGTDFTLTISSLEPEDFALYYCLQRNTWPPLTFGGGTKVEIKR
notes: Recombinant human IgG, gamma heavy and kappa light chain, made by transient transfection of 293 cells; also called mAb A-2F10
[2]
  Kd: 1.98 nM
  koff: 0.00111 s⁻¹
  kon: 562000 M⁻¹ s⁻¹
[4]
  Kd: 1.98 nM
  koff: 0.00111 s⁻¹
  kon: 562000 M⁻¹ s⁻¹
[3]
  neutralization of GPCMV V545/82 entry into JH4 cells; highest concentration tested without effect: > 300 ng/mL

B3: 5P9 human anti-CMV antibody (antibody, V domains shown)
VH: QVQLVESGGGVIQPGRSLRLSCVASKFIFSNHGIHWVRQAPGKGLEWVAVISKDGTNAHYADSVRGRFSISRDNSKDTVFLEMRSLRPEDTAVYYCAREGRCIEEKCYSGQIDYWGQGSLVTVSS
VL: EILLTQSPATLSLSPGERATLSCRASQSVGRYMAWYQQRPGQAPRLLIYDASIRATGIPARFSGSGSGTDFTLTISSLQTEDFAIYYCQQRSSWPPLTFGGGTKVEIKR
notes: Recombinant human IgG, gamma heavy and kappa light chain; also called mAb E-5P9
[2]
  Kd: 4.9 nM
  koff: 0.00121 s⁻¹
  kon: 245000 M⁻¹ s⁻¹
[3]
  neutralization of GPCMV V545/82 entry into JH4 cells; highest concentration tested without effect: > 300 ng/mL
[5]
  Kd: 4.9 nM
  koff: 0.00121 s⁻¹
  kon: 245000 M⁻¹ s⁻¹

B4: 4P12 human anti-CMV antibody (antibody, V domains shown)
VH: QVQLVESGGGVIQPGRSLRLSCVASKFIFSNHGIHWVRQAPGKGLEWVAVISKDGTNAHYADSVRGRFSISRDNSKDTVFLEMRSLRPEDTAVYYCAREGRCIEENCYSGQIDYWGQGSLVTVSS
VL: EILLTQSPATLSLSPGERATLSCRASQSVGRYMAWYQQRPGQAPRLLIYDASIRATGIPARFSGSGSGTDFTLTISSLQPEDFAIYYCQQRSSWPPLTFGGGTKVEIKR
notes: Recombinant human IgG, gamma heavy and kappa light chain; also called mAb D-4P12
[6]
  Kd: 10.9 nM
  koff: 0.0019 s⁻¹
  kon: 175000 M⁻¹ s⁻¹
[2]
  Kd: 10.9 nM
  koff: 0.0019 s⁻¹
  kon: 175000 M⁻¹ s⁻¹
[3]
  neutralization of GPCMV V545/82 entry into JH4 cells; highest concentration tested without effect: > 300 ng/mL
